Assay [1] deals with T1, EGFR-D1D2 (L25-A310, P00533-1 (uniprot)) his tag antigen (human, UniProt P00533 25-310).
T1 construct: range 25-310; also called I+II domain protein; EGFR-D1D2 protein; not shown: His tag
Briefly: ELISA: EGFR-D1D2 his tag antigen coated at 0.5 µg/mL, antibody at 2000, 200, 20, 2 nM, HRP goat anti-human IgG Fc, OD450. The procedure:
(2) Protein Binding Epitope Analysis: ELISA was used to determine the binding of VHH-IgG4 antibody to each domain of EGFR extracellular protein. Briefly, EGFR his tag protein, and EGFR-V3-his tag antigen protein were diluted to 1 μg/mL, EGFR-D1D2 (L25-A310, P00533-1 (uniprot)), and EGFR-D4 (F481-S645, P00533-1 (uniprot)) his tag antigen were diluted to 0.5 μg/mL, and each well of an ELISA plate was coated with […] antigen and incubated overnight at 4° C. The next day, the plates were washed twice with PBST (added with 0.5% TWEEN-20), then blocked with 3% BSA at 37° C. for 1.5 h, and then washed twice with PBST. Then, the antibody to be tested was diluted to 50 nM, 5 nM, 0.5 nM, 0.05 nM, and added to the wells coated with EGFR his tag protein or EGFR-V3-his tag antigen at 100 µL/well, respectively. The antibody was diluted to 2000 nM, 200 nM, 20 nM, 2 nM, and added to the wells coated with EGFR his tag protein or EGFR-V3-his tag antigen at 100 µL/well, respectively. The ELISA plates were incubated at 37° C. for 1 h. The plates were then washed three times with PBST, and then 100 μL HRP labeled Goat anti human IgG Fc antibody (1:10000, Bethyl) was added into each well, and incubated at 37° C. for another 40 min. After washing the plates four times with PBST, 100 μL of TMB substrate was added to each well, and the reaction was allowed to proceed for 3-5 min. The reaction was stopped by adding 100 μL of 3N hydrochloric acid per well. After stopping the reaction, the optical density at 450/650 nm was measured using a Tecan microplate reader.

The target in assay [2] is T2, Region III of EGFR expressed on HEK293T cells (human, UniProt P00533).
T2 construct: also called HEK293T EGFR-III cells; stably transformed cell line 293T overexpressing EGFR III region protein
The experiment in a line: flow cytometry on HEK293T cells expressing EGFR region III, anti-human IgG PE, MFI, curve fit; unit from the concentration axis and paragraph 62 [table]. The procedure: HEK293T cells that express Region III of EGFR (i.e., HEK293T […] cells) were plated in a 96-well plate with 3×10⁵ cells/well, and then HEK293T […] cells were incubated with gradient diluted VHH-IgG4 antibody. After incubation for half an hour, anti-human IgG PE (Jackson Immuno Research, Code: 109-117-008, Lot:145501) as the secondary antibody for detection was added for incubation, and then CytoFLEX flow cytometer was used for detection. The EC50 of the antibody was calculated by curve fitting with Graphprism8.0 software. Isotype 1 in the figure is a negative control, and its amino acid sequence is shown as SEQ ID NO: 2 in CN106046152A.
(A flow cytometer gives signals particle by particle.)

In assay [3] the target is T3, Mouse EGFR Protein, His Tag (Acro, Cat #EGR-M5224) (mouse, UniProt Q01279 25-647).
T3 construct: extracellular domain; Bought protein; not shown: His tag
Briefly: ELISA, coated antigen 1 ug/mL, antibody 50 nM. As for the experimental part: (§1) ELISA was used to identify the binding of VHH-IgG4 antibodies to the extracellular domains of mouse EGFR, monkey EGFR, and human EGFR proteins. The detection steps were as follows: Mouse EGFR Protein, His Tag (Acro, Cat #EGR-M5224) and Rhesus macaque EGFR Protein, His Tag (Acro, Cat #EGR-C52H1) were diluted to 1 μg/mL with phosphate buffer, and 100 μL of each dilution was added to a 96-well ELISA plate and coated overnight at 4° C. The next day, the plates were washed twice with PBST (containing 0.5% TWEEN-20) and then blocked with 3% BSA at 37° C. for 1.5 h, followed by two washes with PBST. VHH-IgG4 antibodies were diluted to 50 nM, and 100 μL of the dilution was added to each well and incubated at 37° C. for 1 h. The plates were then washed three times with PBST, and 100 μL of HRP-labeled goat anti-human IgG Fc antibody (1:10000, Bethyl) was added to each well and incubated at 37° C. for another 40 min. After washing the plates four times with PBST, 100 μL of TMB substrate was added to each well, and the reaction was allowed to proceed for 3-5 min. The reaction was stopped by adding 100 μL of 3N hydrochloric acid per well. After stopping the reaction, the optical density at 450/650 nm was measured using a Tecan microplate reader.
A general note: In an ELISA, binding on a coated surface is turned into a signal by an enzyme label.

The target of assay [4] is T4, Rhesus macaque EGFR Protein, His Tag (Acro, Cat #EGR-C52H1) (rhesus macaque, UniProt P55245 25-645).
T4 construct: extracellular domain; Bought protein; also called Monkey EGFR; not shown: His tag
Briefly: ELISA, coated antigen 1 ug/mL, antibody 50 nM. As for the experimental part:
as §1

The target in assay [5] is T5, human EGFR.His antigen (Acro, Cat #EGR-H522a) (human, UniProt P00533 25-645).
T5 construct: extracellular domain; Bought protein; also called EGFR his tag protein; full-length EGFR extracellular domain protein; not shown: His tag
The experiment in a line: SPR, antibody captured on protein A, EGFR.His in flow. As for the experimental part:
The binding kinetics and affinity of candidate antibody to human EGFR.His antigen were determined using surface plasmon resonance (SPR). The purified antibody was flowed through the sensor chips pre-immobilized with protein A, and the antibody was captured by protein A. Then five different concentrations of EGFR.His protein were used as the mobile phase, and the binding time and dissociation time were […], respectively. The binding rate (kon), dissociation rate (koff), and equilibrium constant (kD) were analyzed using Biacore Evaluation Software 2.0 (GE). EC225, an antibody that binds to region III of human EGFR, was selected as a positive control (sequence source https.//go.drugbank.com/drugs/DB00002).
(SPR reads the build-up and loss of mass on a sensor chip optically.)

B1: E002 VHH-IgG4 antibody (antibody, V domains shown)
VH: QVQLVESGGGLVQAGGSLRLSCAASGFTFSDYAVSWYRQAPGKEREFVARITGTGETSRYEDSVKGRFAISRDNVKNTAYLQMNSLKPEDTAVYYCSIYHPPRDYWGQGTQVTVSS
notes: VHH fused to IgG4 (VHH-IgG4), expressed in ExpiCHO, protein A purified; not shown: human IgG4 constant part from the pCDNA3.4-IgG4 vector
In the case of B1, the binding result in assay [1] is on record as “no binding (tested: 2000 nM)”. The molecule also yielded an EC50 in assay [2] of 0.095 nM. Also, the OD450 in assay [3] was 2.73 OD450. The molecule also showed an OD450 in assay [4] of 3.06 OD450. Moreover, in assay [5], the affinity, expressed as Kd, was 2.49 nM; the koff was determined as 0.000121 s⁻¹; the kon is 48500 M⁻¹ s⁻¹.

B2: E004 VHH-IgG4 antibody (antibody, V domains shown, not shown: a dimerising Fc or GST)
VH: EVQLVESGGGLAQSGGSLRLACEASGFPFETYAMSWARQTPGNEPEWVAGIFPDGKHTAYAHSVKGRFTISRVNANNTVYLQMDSLKPEDTAVYYCAKDLPFFATPSFYIGYWGQGTLVTVSS
In the case of B2, the binding result in assay [1] was “no binding (tested: 2000 nM)”. Further, the response in assay [2] was half-maximal at 0.39 nM (EC50). Further, the OD450 in assay [3] was found to be 3.37 OD450. The same molecule showed an OD450 in assay [4] of 3.64 OD450. In assay [5], binding was put at a Kd of 5.17 nM, the koff was 0.000776 s⁻¹ and the kon came out at 150000 M⁻¹ s⁻¹.

B3: E003 VHH-IgG4 antibody (antibody, V domains shown, not shown: a dimerising Fc or GST)
VH: QVQLVESGGGLVQPGGSLRLSCVASGGVFSSYAMGWYRQVPGKLRELVATITSGHSTTYADIVRGRFTISRDNTKNTVYLQMNRLEPDDTAVYYCNRSPYTPGNWGQGTLVTVSS
Turning to B3, in assay [1], the binding result is “no binding (tested: 2000 nM)”. Moreover, the midpoint of the response in assay [2], the EC50, lay at 0.36 nM. Also, the OD450 in assay [3] came out at 2.8 OD450. The OD450 in assay [4] came to 3.15 OD450. In assay [5], this molecule yielded a Kd of 4.68 nM, a dissociation rate constant (koff) of 0.000133 s⁻¹ and an on-rate constant (kon) of 28400 M⁻¹ s⁻¹.

B4: E005 VHH-IgG4 antibody (antibody, V domains shown)
VH: QVQLVESGGGLVQPGGSLRLSCEASGFAFSDYTMRWHRQAAGKELELVAYITSAGDIIKYANSVRGRFTISRDNAKNTLYLQMDSLKPEDTAVYRCNALVSASVRASDYWGQGTLVTVSS
notes: as for B1
Regarding B4, the binding result in assay [1] is recorded as “no binding (tested: 2000 nM)”. The same molecule registered a half-maximal effective concentration (EC50) in assay [2] of 0.98 nM. This molecule also yielded an OD450 in assay [3] of 3.33 OD450. For the same molecule, in assay [4], the OD450 is 3.19 OD450. In assay [5], this molecule returned a Kd of 2.86 nM, a koff of 4.67e-05 s⁻¹ and a kon of 16400 M⁻¹ s⁻¹.

B5: E007 VHH-IgG4 antibody (antibody, V domains shown, not shown: a dimerising Fc or GST)
VH: EVQLVESGGGLVQPGGSLRLSCEASGFSFSDHTMRWHRQAAGKNLELVAYITPAGDIIKYADSVQGRFTISRDNAKNMLYLQMDSLRPDDTAVYRCNALVSAAVRASDYWGQGTQVTVSS
On to B5, for which, in assay [1], the binding result is recorded as “no binding (tested: 2000 nM)”. This molecule registered an EC50 in assay [2] of 0.47 nM. Besides, the OD450 in assay [3] was determined as 3.21 OD450. The OD450 in assay [4] came to 3.35 OD450. Also, in assay [5], the Kd was determined as 0.292 nM, the koff turned out to be 1.08e-05 s⁻¹ and the kon was 37100 M⁻¹ s⁻¹.

B6: E008 VHH-IgG4 antibody (antibody, V domains shown)
VH: EVQVVESGGGLVQSGGSLTLSCTSSGLPLLDYAIGWFRQAPGKEREAVSAISISEGSTYYTDSVRGRFTISRDNNKNKVYLRMDNLKPEDTAVYYCAADKTDIGFWLLVGGAGGGEVRYEYWGQGTQVTVSS
notes: as for B1
With B6, the binding result in assay [1] is reported as “no binding (tested: 2000 nM)”. This molecule came in with an EC50 in assay [2] of 0.18 nM. The molecule further returned an OD450 in assay [3] of 0.72 OD450. In assay [4], this molecule showed an OD450 of 3.68 OD450. In assay [5], this molecule yielded a Kd of 9.62 nM, a koff of 0.0148 s⁻¹ and a kon of 1.53e+06 M⁻¹ s⁻¹.

By EC50 is commonly meant the midpoint of the concentration-response curve. A lower EC50 goes with an effect from little substance. The Kd is the free concentration of one partner at which half of the binding sites on the other are occupied at equilibrium, for simple one-to-one binding. A lower Kd goes with higher affinity. In general, koff refers to the first-order rate constant of dissociation. A higher koff goes with a short-lived complex. One may read the kon as a measure of how fast the partners come together. A low value points to slower complex formation.

Source of the values: US20250215092A1 (ZHEJIANG NANOMAB TECHNOLOGY CENTER, published 2025).
